Source: PMC5027281 (Nature Communications, 2016)

Key:
Conditions in all cases: both partners purified
[1] = biological target: T1, Recombinant full-length HA of A/Vietnam/1203/04 (H5-VN04) (Influenza A virus A/Vietnam/1203/2004 …, UniProt Q5EP31); test: ELISA
[2] = biological target: Recombinant full-length HA of A/California/04/09 (H1-CA09) (influenza A virus A/California/04/09, UniProt C3W5S1); test: BLI
[3] = biological target: T1, Recombinant full-length HA of …; test: BLI

B1: F10 scFvFc (scFv, V domains shown)
VH: QVQLVQSGAEVKKPGSSVKVSCTSSEVTFSSFAISWVRQAPGQGLEWLGGISPMFGTPNYAQKFQGRVTITADQSTRTAYMDLRSLRSEDTAVYYCARSPSYICSGGTCVFDHWGQGTLVTVSS
VL: QPGLTQPPSVSKGLRQTATLTCTGNSNNVGNQGAAWLQQHQGHPPKLLSYRNNDRPSGISERFSASRSGNTASLTITGLQPEDEADYYCSTWDSSLSAVVFGGGTKLTVL
B1: binds [1].

B2: 39.29 scFvFc (scFv, V domains shown)
VH: VQLVESGGGVVQPGKSPRLSCAASGPTFSSYAVHWVRQAPGKGLEWVTLISYDGANQYYADSVKGRFTISRDNSKNTVYLQMNSLRPEDTAVYYCAVPGPVFGIFPPWSYFDNWGQGILVTVSS
VL: IVLTQSPATLSVSPGERATLSCRASQVISHNLAWYQQKPGQAPRLLIYGASTRASGIPARFSGSGSGTDYTLTITSLQPEDFAVYYCQHYSNWPPRLTFGGGTKVEIK
B2: binds [1].

B3: 3I14-mHgL IgG1 (mature heavy chain, germline light chain) (antibody, V domains shown)
VH: QVQLLESGGGVVQPGRSLRLSCAASGFTFSNYGMHWVRQAPGKGLEWVAIISFDGSKKYYANSVKGRSTISRDNSKNTLSLQMNSLGPEDTALYYCAKLPSPYYFDSRFVWVAASAFHFWGQGILVTVSS
VL: not shown
Work on B3 yielded a Kd [2] of under 1 pM, a koff [2] of under 1e-07 s⁻¹ and a kon [2] of 138000 M⁻¹ s⁻¹.

B4: 3I14-gHmL IgG1 (germline heavy chain, mature light chain) (antibody, V domains shown)
VH: QVQLVESGGGVVQPGRSLRLSCAASGFTFSSYGMHWVRQAPGKGLEWVAVISYDGSNKYYADSVKGRFTISRDNSKNTLYLQMNSLRAEDTAVYYCAKLPSPYYYDSRFVWVAASYFDYWGQGTLVTVSS
VL: NFMLTQPPSASGTPGQRVTISCSGSSSNIGGNTVHWFQQLPGTAPKLLIYTNSLRPSGVPDRFSGSKSGTSASLAISGLQSEDEADYYCAAWDDSLNGQVFGGGTKLTVL
For B4, the Kd [2] was under 1 pM, the koff [2] was under 1e-07 s⁻¹ and the kon [2] was 155000 M⁻¹ s⁻¹. It also gave a Kd [3] of 1.95 nM, a koff [3] of 0.000844 s⁻¹ and a kon [3] of 434000 M⁻¹ s⁻¹.
